Measurements: patent US20140087995A1 (published 2014)
Values belong to the binder of their own block, whether it stands above or below them. Numbered stars: 1 amine (or outer) side, 2 acyl side, 3 side chain; on linkers, the order of the positions; unused ones are H or OH. Bridge positions count the residues as written; N and C are the ends. Square brackets hold non-standard residues; d marks the D form. Side chains are listed from the residue outwards. Ends that are not written are not given here. * marks the point of attachment. C20 diacid = O=C(O)CCCCCCCCCCCCCCCCCCC(=O)*; γGlu = O=C(O)[C@H](CCC(=O)[*:2])N[*:1]

Experiments:
[1] = molecular target: T1, rat amylin receptor (rat calcitonin receptor + rat RAMP 3) (rat, UniProt P32214 25-516; Q9JJ73 23-147); assay: SPA competition binding, displacement of 125I-rat amylin from membranes of BHK tk'ts 13 cells with rat calcitonin receptor + rat RAMP 3 (Assay VI)
T1 construct: whole, on cells; Receptor complex in cell membranes prepared from transiently transfected BHK tk'ts 13 cells (Assay VI); also called rAmylin-R; rat amylin 3(a) receptor
T1 sequence (looked up) 1: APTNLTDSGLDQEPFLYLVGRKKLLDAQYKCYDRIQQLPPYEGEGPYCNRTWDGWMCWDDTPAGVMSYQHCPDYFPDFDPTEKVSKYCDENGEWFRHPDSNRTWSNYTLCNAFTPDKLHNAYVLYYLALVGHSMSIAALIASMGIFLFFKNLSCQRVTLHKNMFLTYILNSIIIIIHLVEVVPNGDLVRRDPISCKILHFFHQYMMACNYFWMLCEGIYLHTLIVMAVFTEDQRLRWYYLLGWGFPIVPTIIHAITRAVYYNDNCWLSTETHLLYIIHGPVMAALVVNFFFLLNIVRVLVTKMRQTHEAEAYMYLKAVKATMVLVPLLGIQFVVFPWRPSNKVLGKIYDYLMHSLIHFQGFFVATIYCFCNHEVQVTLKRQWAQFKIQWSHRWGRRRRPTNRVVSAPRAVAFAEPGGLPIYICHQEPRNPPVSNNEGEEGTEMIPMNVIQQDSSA
T1 sequence (looked up) 2: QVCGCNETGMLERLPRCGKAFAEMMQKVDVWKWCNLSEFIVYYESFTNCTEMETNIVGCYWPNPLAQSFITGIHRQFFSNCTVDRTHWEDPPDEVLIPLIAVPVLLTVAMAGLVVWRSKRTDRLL
Procedure: The binding assay was performed using scintillation proximity assay (SPA) beads (RPNQ0001) from PerkinElmer and cell membranes from the Amylin 3(a)/CRE-luc cells (as described in Assay (II)) were used. Membranes were prepared in the following way; the cells were rinsed with PBS and incubated with Versene for approximately 5 min before harvesting. The cells were flushed with PBS and the cell-suspension was centrifuged for 5 min at 1000 rpm. Cells were homogenized (ultrathurrax) in a buffer containing 20 mM Na-HEPES and 10 mM EDTA (pH 7.4) and centrifuged at 20.000 rpm for 15 min. The resulting pellet was resuspended, homogenized and centrifuged (20.000 rpm, 15 min) in a buffer containing 20 mM Na-HEPES and 0.1 mM EDTA (pH 7.4, buffer 2). The resulting pellet was resuspended in buffer 2 and protein concentration was measured (BCA protein Assay, Pierce). The homogenate was kept cold during the whole procedure. The membranes were kept at −80° C. until use. The assay was performed in a 384 well Optiplate (PerkinElmer) in a total volume of 40 ul. Membranes were mixed with SPA beads. Final concentration of membranes 35 ng/μL final and SPA beads was 0.05 mg/well. Test-compounds were dissolved in DMSO and further diluted in assay buffer (50 mM Hepes, pH 7.4, 1 mM CaCl2, 5 mM MgCl₂, 0.1% OA and 0.02% Tween20). […] The final mixture was incubated with shaking at 400 rpm for 120 min at 25° C. prior to centrifugation (1500 rpm, 10 min). Samples were analyzed on TopCounter™ (Packard). The IC₅₀ was calculated using (one site binding competition analysis) GraphPad Prism5 as a measure of receptor affinity.
Cells were grown in DMEM with 10% FBS and 1% Pen/Strep. Approximately 48 hours after transfection, the cells were harvested and membranes were prepared.

rat calcitonin receptor = molecular target: T2, rat calcitonin receptor (rat, UniProt P32214 25-516); assay: SPA competition binding, displacement of 125I-Calcitonin from membranes of BHK tk'ts 13 cells with rat calcitonin receptor (Assay VIII)
T2 construct: whole, on cells; In cell membranes prepared from transiently transfected BHK tk'ts 13 cells (Assay VIII); also called rCTR; rat calcitonin (a) receptor
T2 sequence (looked up): T1 sequence (looked up) 1

[2] = molecular target: T3, human calcitonin receptor (human, UniProt P30988 25-474); assay: cell-based or functional assay
T3 sequence (looked up): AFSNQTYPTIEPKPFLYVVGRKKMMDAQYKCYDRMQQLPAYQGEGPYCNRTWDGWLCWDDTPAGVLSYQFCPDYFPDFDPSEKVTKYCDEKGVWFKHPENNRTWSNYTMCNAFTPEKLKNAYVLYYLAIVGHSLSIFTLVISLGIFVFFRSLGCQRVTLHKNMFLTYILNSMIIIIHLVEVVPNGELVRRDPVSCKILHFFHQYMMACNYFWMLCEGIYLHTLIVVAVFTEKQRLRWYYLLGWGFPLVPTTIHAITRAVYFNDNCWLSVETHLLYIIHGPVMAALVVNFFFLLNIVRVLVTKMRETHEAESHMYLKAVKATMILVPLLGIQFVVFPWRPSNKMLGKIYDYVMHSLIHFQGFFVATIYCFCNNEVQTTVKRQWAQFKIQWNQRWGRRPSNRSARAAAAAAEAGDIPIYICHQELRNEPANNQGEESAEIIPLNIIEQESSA

[3] = molecular target: T4, human amylin 3(a) receptor (human calcitonin receptor co-expressed with RAMP-3) (human, UniProt P30988 25-474; O60896 24-148, limits assumed); assay: cell-based or functional assay
T4 sequence (looked up) 1: T3 sequence (looked up)
T4 sequence (looked up) 2: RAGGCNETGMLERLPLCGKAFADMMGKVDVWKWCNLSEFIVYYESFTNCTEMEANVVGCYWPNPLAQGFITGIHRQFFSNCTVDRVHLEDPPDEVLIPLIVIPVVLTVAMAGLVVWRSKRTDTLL

IC50 [1]: 1.69 nM
IC50 (rat calcitonin receptor): 536 nM
B1: N^ε1-[(4S)-4-carboxy-4-[[(4S)-4-carboxy-4-(19-carboxynonadecanoylamino)butanoyl]amino]butanoyl]-[D-Asp14,Arg17,Pro21,Pro27,Arg35]-h-amylin (peptide)
peptide: K([γGlu-γGlu-C20 diacid])CNTATCATQRLA[dD]FLRHSSPNFGAIPSSTNVGSRTY-NH2
modifications: disulfide 2-7; N-terminus assumed
SMILES: CC[C@H](C)[C@H](NC(=O)[C@H](C)NC(=O)CNC(=O)[C@H](Cc1ccccc1)NC(=O)[C@H](CC(N)=O)NC(=O)[C@@H]1CCCN1C(=O)[C@H](CO)NC(=O)[C@H](CO)NC(=O)[C@H](Cc1c[nH]cn1)NC(=O)[C@H](CCCNC(=N)N)NC(=O)[C@H](CC(C)C)NC(=O)[C@H](Cc1ccccc1)NC(=O)[C@@H](CC(=O)O)NC(=O)[C@H](C)NC(=O)[C@H](CC(C)C)NC(=O)[C@H](CCCNC(=N)N)NC(=O)[C@H](CCC(N)=O)NC(=O)[C@@H](NC(=O)[C@H](C)NC(=O)[C@@H]1CSSC[C@H](NC(=O)[C@@H](N)CCCCNC(=O)CC[C@H](NC(=O)CC[C@H](NC(=O)CCCCCCCCCCCCCCCCCCC(=O)O)C(=O)O)C(=O)O)C(=O)N[C@@H](CC(N)=O)C(=O)N[C@@H]([C@@H](C)O)C(=O)N[C@@H](C)C(=O)N[C@@H]([C@@H](C)O)C(=O)N1)[C@@H](C)O)C(=O)N1CCC[C@H]1C(=O)N[C@@H](CO)C(=O)N[C@@H](CO)C(=O)N[C@H](C(=O)N[C@@H](CC(N)=O)C(=O)N[C@H](C(=O)NCC(=O)N[C@@H](CO)C(=O)N[C@@H](CCCNC(=N)N)C(=O)N[C@H](C(=O)N[C@@H](Cc1ccc(O)cc1)C(N)=O)[C@@H](C)O)C(C)C)[C@@H](C)O
notes: residue 14 is D-aspartic acid (printed 14d)

hCTR funct. EC50 [2]: 1.32 nM
Ratio hCT/hAmylin funct. [3]: 6
B2: N^-1-[(4S)-4-carboxy-4-(19-carboxynonadecanoylamino)butanoyl]-Gly[Arg1,Arg17,Pro21,Pro27,His35]-h-amylin (peptide)
peptide: {C20 diacid-γGlu}-GRCNTATCATQRLANFLRHSSPNFGAIPSSTNVGSHTY-NH2
modifications: disulfide 3-8
SMILES: CC[C@H](C)[C@H](NC(=O)[C@H](C)NC(=O)CNC(=O)[C@H](Cc1ccccc1)NC(=O)[C@H](CC(N)=O)NC(=O)[C@@H]1CCCN1C(=O)[C@H](CO)NC(=O)[C@H](CO)NC(=O)[C@H](Cc1c[nH]cn1)NC(=O)[C@H](CCCNC(=N)N)NC(=O)[C@H](CC(C)C)NC(=O)[C@H](Cc1ccccc1)NC(=O)[C@H](CC(N)=O)NC(=O)[C@H](C)NC(=O)[C@H](CC(C)C)NC(=O)[C@H](CCCNC(=N)N)NC(=O)[C@H](CCC(N)=O)NC(=O)[C@@H](NC(=O)[C@H](C)NC(=O)[C@@H]1CSSC[C@H](NC(=O)[C@H](CCCNC(=N)N)NC(=O)CNC(=O)CC[C@H](NC(=O)CCCCCCCCCCCCCCCCCCC(=O)O)C(=O)O)C(=O)N[C@@H](CC(N)=O)C(=O)N[C@@H]([C@@H](C)O)C(=O)N[C@@H](C)C(=O)N[C@@H]([C@@H](C)O)C(=O)N1)[C@@H](C)O)C(=O)N1CCC[C@H]1C(=O)N[C@@H](CO)C(=O)N[C@@H](CO)C(=O)N[C@H](C(=O)N[C@@H](CC(N)=O)C(=O)N[C@H](C(=O)NCC(=O)N[C@@H](CO)C(=O)N[C@@H](Cc1c[nH]cn1)C(=O)N[C@H](C(=O)N[C@@H](Cc1ccc(O)cc1)C(N)=O)[C@@H](C)O)C(C)C)[C@@H](C)O
notes: h-amylin derivative, N-terminally extended by one residue; disulfide bridge and C-terminal amide as told for human amylin; also called compound 47

hCTR funct. EC50 [2]: 5.22 nM
Ratio hCT/hAmylin funct. [3]: 14
B3: N^ε1-[(4S)-4-carboxy-4-(19-carboxynonadecanoylamino)butanoyl]-[Glu14,Arg17,Pro21,Pro27,Arg35]-h-amylin (peptide)
peptide: K([γGlu-C20 diacid])CNTATCATQRLAEFLRHSSPNFGAIPSSTNVGSRTY-NH2
modifications: disulfide 2-7; N-terminus assumed
SMILES: CC[C@H](C)[C@H](NC(=O)[C@H](C)NC(=O)CNC(=O)[C@H](Cc1ccccc1)NC(=O)[C@H](CC(N)=O)NC(=O)[C@@H]1CCCN1C(=O)[C@H](CO)NC(=O)[C@H](CO)NC(=O)[C@H](Cc1c[nH]cn1)NC(=O)[C@H](CCCNC(=N)N)NC(=O)[C@H](CC(C)C)NC(=O)[C@H](Cc1ccccc1)NC(=O)[C@H](CCC(=O)O)NC(=O)[C@H](C)NC(=O)[C@H](CC(C)C)NC(=O)[C@H](CCCNC(=N)N)NC(=O)[C@H](CCC(N)=O)NC(=O)[C@@H](NC(=O)[C@H](C)NC(=O)[C@@H]1CSSC[C@H](NC(=O)[C@@H](N)CCCCNC(=O)CC[C@H](NC(=O)CCCCCCCCCCCCCCCCCCC(=O)O)C(=O)O)C(=O)N[C@@H](CC(N)=O)C(=O)N[C@@H]([C@@H](C)O)C(=O)N[C@@H](C)C(=O)N[C@@H]([C@@H](C)O)C(=O)N1)[C@@H](C)O)C(=O)N1CCC[C@H]1C(=O)N[C@@H](CO)C(=O)N[C@@H](CO)C(=O)N[C@H](C(=O)N[C@@H](CC(N)=O)C(=O)N[C@H](C(=O)NCC(=O)N[C@@H](CO)C(=O)N[C@@H](CCCNC(=N)N)C(=O)N[C@H](C(=O)N[C@@H](Cc1ccc(O)cc1)C(N)=O)[C@@H](C)O)C(C)C)[C@@H](C)O
notes: h-amylin derivative; disulfide bridge and C-terminal amide as told for human amylin; also called compound 51
